In patent US20120100160A1:

Target: murine LFA-1 (on TK1/TK-1 cells or primary murine splenocytes) (murine) (UniProt P24063)
Test: cell-based or functional assay

Sequence of UniProt P24063 (P24063 24-1162, chain 1 of 2): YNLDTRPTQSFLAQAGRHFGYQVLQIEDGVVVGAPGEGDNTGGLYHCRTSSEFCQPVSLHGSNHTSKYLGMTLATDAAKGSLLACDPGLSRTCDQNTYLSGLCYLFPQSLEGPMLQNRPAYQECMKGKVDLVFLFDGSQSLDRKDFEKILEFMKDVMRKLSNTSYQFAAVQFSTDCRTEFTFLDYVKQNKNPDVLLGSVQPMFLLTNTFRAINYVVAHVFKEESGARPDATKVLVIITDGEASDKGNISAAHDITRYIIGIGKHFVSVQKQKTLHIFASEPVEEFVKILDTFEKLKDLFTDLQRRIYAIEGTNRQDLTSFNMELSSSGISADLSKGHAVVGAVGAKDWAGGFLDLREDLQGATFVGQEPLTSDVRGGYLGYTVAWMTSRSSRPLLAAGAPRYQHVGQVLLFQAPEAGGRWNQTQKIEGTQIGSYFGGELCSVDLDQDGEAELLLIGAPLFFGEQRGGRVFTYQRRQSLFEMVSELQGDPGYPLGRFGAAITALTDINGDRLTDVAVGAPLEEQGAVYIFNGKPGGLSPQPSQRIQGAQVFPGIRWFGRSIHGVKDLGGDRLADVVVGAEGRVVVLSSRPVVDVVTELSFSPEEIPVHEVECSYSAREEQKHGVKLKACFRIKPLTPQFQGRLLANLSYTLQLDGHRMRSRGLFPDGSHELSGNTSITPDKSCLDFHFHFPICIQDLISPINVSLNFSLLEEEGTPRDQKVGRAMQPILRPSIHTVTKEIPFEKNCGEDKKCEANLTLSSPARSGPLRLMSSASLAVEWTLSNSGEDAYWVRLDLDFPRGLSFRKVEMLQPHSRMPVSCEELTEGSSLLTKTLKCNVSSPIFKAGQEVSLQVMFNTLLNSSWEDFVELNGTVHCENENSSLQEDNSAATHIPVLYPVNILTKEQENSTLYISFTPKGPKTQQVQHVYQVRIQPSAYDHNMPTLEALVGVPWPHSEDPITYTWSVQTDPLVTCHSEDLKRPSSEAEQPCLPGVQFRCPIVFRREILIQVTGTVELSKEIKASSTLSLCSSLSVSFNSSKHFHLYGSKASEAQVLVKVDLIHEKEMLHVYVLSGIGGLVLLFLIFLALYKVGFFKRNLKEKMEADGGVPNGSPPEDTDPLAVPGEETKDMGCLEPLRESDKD
Sequence of UniProt P24063 (P11835 24-771, chain 2 of 2, further chain): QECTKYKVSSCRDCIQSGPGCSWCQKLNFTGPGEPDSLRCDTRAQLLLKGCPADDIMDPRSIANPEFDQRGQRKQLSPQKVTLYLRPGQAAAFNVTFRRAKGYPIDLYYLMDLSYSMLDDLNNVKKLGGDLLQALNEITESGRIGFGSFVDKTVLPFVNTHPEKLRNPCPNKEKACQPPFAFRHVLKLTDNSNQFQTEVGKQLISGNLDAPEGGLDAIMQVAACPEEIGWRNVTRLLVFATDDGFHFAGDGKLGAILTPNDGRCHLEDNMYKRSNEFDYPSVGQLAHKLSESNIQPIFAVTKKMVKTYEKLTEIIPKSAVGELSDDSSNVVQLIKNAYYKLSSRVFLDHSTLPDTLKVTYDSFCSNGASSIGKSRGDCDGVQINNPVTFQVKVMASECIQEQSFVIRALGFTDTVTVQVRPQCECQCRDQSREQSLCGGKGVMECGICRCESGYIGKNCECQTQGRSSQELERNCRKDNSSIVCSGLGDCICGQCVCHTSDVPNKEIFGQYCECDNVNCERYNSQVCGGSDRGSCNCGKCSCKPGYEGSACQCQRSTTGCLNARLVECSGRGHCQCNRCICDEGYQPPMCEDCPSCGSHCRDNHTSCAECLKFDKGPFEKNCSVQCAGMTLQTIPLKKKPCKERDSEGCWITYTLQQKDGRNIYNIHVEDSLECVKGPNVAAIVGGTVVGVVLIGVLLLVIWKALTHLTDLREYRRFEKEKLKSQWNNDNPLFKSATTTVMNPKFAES

## multimerized ICAM-1-protamine fusion protein (80 pmoles fusion protein with 10 pmoles anti-Fc Fab′2)
  CD45 knockdown in TK-1 cells: subpopulation of CD45-low cells at the 6:1 ratio of siRNA to fusion protein: 14%
